Consider one molecule from patent CN113045675A (BEIJING ROCK EDGE BIOTECHNOLOGY CO LTD, dated 2021).

Assay [1] addresses T1, CD22蛋白胞外段 (CD22 extracellular domain, C-terminal His tag) (human, UniProt P20273 20-687).
T1 construct: extracellular domain; also called CD22胞外段蛋白; CD22蛋白分子; not shown: C-terminal His tag
T1 sequence (looked up): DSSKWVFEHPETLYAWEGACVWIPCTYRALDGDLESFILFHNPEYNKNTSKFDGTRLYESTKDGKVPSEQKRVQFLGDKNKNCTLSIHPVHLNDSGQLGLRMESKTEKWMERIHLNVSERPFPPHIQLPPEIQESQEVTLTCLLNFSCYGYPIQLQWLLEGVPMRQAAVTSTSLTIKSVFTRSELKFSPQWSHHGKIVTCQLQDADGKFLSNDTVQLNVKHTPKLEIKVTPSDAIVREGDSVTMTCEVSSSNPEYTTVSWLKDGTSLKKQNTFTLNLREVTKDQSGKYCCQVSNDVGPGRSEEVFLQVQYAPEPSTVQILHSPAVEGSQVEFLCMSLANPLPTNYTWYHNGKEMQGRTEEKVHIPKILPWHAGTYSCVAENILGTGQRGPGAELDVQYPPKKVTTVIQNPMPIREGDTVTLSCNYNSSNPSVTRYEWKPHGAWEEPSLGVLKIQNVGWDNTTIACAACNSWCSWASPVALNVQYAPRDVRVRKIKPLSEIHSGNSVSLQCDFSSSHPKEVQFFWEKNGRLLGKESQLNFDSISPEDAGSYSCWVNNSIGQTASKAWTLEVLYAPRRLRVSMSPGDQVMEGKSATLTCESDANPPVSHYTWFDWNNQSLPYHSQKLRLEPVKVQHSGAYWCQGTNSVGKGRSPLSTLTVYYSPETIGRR
The assay is described as follows: SPR, Biacore T200; CD22 amine-coupled to a CM5 chip; screening of clones by affinity. On the technique in general: In SPR one partner is held on a chip, and binding of the other changes the refractive index at the surface.

Assay [2] has as its target T1, CD22蛋白胞外段 (CD22 extracellular domain, …). The assay is described as follows: SPR, Biacore T200; CD22 amine-coupled to a CM5 chip; nanobody at 2, 4, 8, 16 and 32 nM; curve fit.

For orientation: Kd means the constant that tells how readily two partners part at equilibrium. A high value points to weaker binding.

B1: BA125纳米抗体 (BA125 nanobody, VHH against CD22, C-terminal His tag) (VHH)
VHH: QVQLVESGGGLVQPGGSLRLSCAASGSIFGSNTMGWFRQAPGQQRELVAAMSTLGRTSYAVSVKGRFTISRDNAKNTVYLQMNSLKPEDTAVYYCKYTGTTPRDIYWGLGTQVTVSS
notes: also called 纳米抗体BA125克隆; BA125纳米抗体VHH区; not shown: C-terminal His tag
In the case of B1, the Kd in assay [1] was roughly 10 nM; in assay [2], 9.47 nM.
